Assay: yeast display, Sf9 membrane polyspecificity reagent, FACS + sequencing; frameworks hold sequencing errors
Summary of the method: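 Nanobodies from a synthetic yeast display library (Saccharomyces cerevisiae BJ5465), induced 36–48 hours with galactose, were stained 1 hour at 4 °C with 10% biotinylated, detergent-solubilized Sf9 membrane reagent, enriched on streptavidin microbeads, then FACS-sorted. Anti-HA (expression) and streptavidin (reagent binding) fluorescence set low and high (top ~1%) gates. Polyreactivity labels come from the gate of origin. Genes were colony-PCR amplified, MiSeq 2 × 250 sequenced and filtered by CDR length.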

QVQLVESGGGLVQAGGSLRLSCAASGLIRYTYAMGWYRQAPGKERELVAAINSGGRTYYADSVKGRFTISRDNAKNTVYLQMNSLKPEYTAVYSCAADYGSRVRGFNYWGQGTQVTVSS
polyreactivity (PSR sort gate): low polyreactivity

QVQLVESGGGLVQAGGSLRLSCAASGLISESYAMGWYRQAPGKETELVAAISSGGSTYYADSVKGRFTISRDNAKNTVYLQMNSLNPEDTAVYFCNATGYKYNYGHAYYYAVDYWGQGTQVTVSS
polyreactivity (PSR sort gate): low polyreactivity

QVQLVESGGGLVQAGGSLRLSCAASGLISHNNAMGWYRQAPGKEREFVAAITTTGSSTYYADSVKGRFTISRDNEKNTVYLQMNSLKPEDTAVYYCAAESVPSRSEMDYWGQGTQVTVSS
polyreactivity (PSR sort gate): low polyreactivity

QVQLVESGGGLVQAGGSLRLSCAASGLISRRNAMGWYRQAPGKERELVAAISTGSSTNYADSVKGRFTISRDNAKNTVYLQMNSLKPEDTAVYYCAATQYWWSTLGIRDDYWGQGTQVTVSS
polyreactivity (PSR sort gate): low polyreactivity

QVQLVESGGGLVQAGGSLRLSCAASGLIVQVYDMGWYRQAPGKEMELVAAISSGSNTNYADSVKGRFTISRDNAKNTVYLLMNSLKPEDTAVYYCAASWGYGALTPDMGYWGQGTQVTVSA
polyreactivity (PSR sort gate): low polyreactivity

QVQLVESGGGLVQAGGSLRLSCAASGLIYTPYAMGWYRQAPGKERELVAAINYGGSRTYYADSVKGRFTISRDNAKNTVYLQMNSLKQEDTAVYYCNKPGNYVWRRSWDFDYWGQGTQVTVSW
polyreactivity (PSR sort gate): high polyreactivity

QVQLVESGGGLVQAGGSLRLSCAASGLNFGRNAIGWYRQAPGKERELVAAISLSGGRTSYADSVKGRFTISRDNEQNTVYLQMNSVKPEDTAFYFCASRSDVYTHDYWGQGTQVTVSS
polyreactivity (PSR sort gate): high polyreactivity

QVQLVESGGGLVQAGGSLRLSCAASGLNFSYYVMGWYRQAPGKERELVATITYSGGSTYYADSVKGRFTISRDNAKNTVYLQMNSLKPEDTAVYYFNADTGYVYSEYEYWGQGTQVTVSS
polyreactivity (PSR sort gate): high polyreactivity

QVQLVESGGGLVQAGGSLRLSCAASGLPFYQYAMGWYRQAPGKERELVAGISSGGSTKYADSVKGRFTISRDNAKNTVYFQMNSLKPEDTAVYYCAARFYAFRKGYYYWGQGTQVTVSS
polyreactivity (PSR sort gate): high polyreactivity

QVQLVESGGGLVQAGGSLRLSCAASGLSFLYAMGWYRHAPGKERELVAAISNGGSTYYADSVKGRFTISRDNAKNTDYLQMNSLKPEDTAVYYCAAAVTGSYASDYWGQGTQVTVSS
polyreactivity (PSR sort gate): high polyreactivity

QVQLVESGGGLVQAGGSLRLSCAASGLSFSVYAMGWSRQAPGTERELVASIDLSGGNTYYADSVKGRFTISRDNAKNTVYLQMNSLKPEDTAVYYCAKYNPYYYSFSVWDGGDYWGQGTQVTVSS
polyreactivity (PSR sort gate): low polyreactivity

QVQLVESGGGLVQAGGSLRLSCAASGLSFSVYAMGWYRQAPGKERELVAAITRNGGSTYYADSVKGRFTISRDTAKNTVYLQMNSLKPEDSAVYYCAAVASSKLYDYWGQGTQVTVSS
polyreactivity (PSR sort gate): low polyreactivity

QVQLVESGGGLVQAGGSLRLSCAASGLSFTFGYAMGWYRQAPGKERELVASISSSGGNTYYADSVKGRFTISRDNAKNTVYLQMNSLKPEDTAVYYCAVYSHRRNMNYWGQGTQVTVSS
polyreactivity (PSR sort gate): high polyreactivity

QVQLVESGGGLVQAGGSLRLSCAASGLTFAWNDMGWYRQAPGKERELVAAISIIGTTYYADSVKGRFTISRDNAKNTVYLQMNSLKREDTAVYYCAKTGFLGLRQYGYWGQGTQVTVSS
polyreactivity (PSR sort gate): high polyreactivity

QVQLVESGGGLVQAGGSLRLSCAASGLTFAWYAMGWYRPAPGKERELVATITSGGSTNYADSVKGRFTISRDNAKNTVYLQMNSLKPEDTAVYYCNADYIYYGTTYEYWGQGTQVTVSS
polyreactivity (PSR sort gate): low polyreactivity

QVQLVESGGGLVQAGGSLRLSCAASGLTFAWYTMGWYRQAPGKERELVADIDQSGSTYYADSVKGRFTISRDNAKNTVYLQMNSLKPEDTAVYYCNAYWSNFLYPFDYWGQGTQVTVSS
polyreactivity (PSR sort gate): high polyreactivity

QVQLVESGGGLVQAGGSLRLSCAASGLTFAYYGMGWYRQAPGKEMELVAAITSSGGSTYYADSVKGRFTISRDNAKNTVYLQMNSLKPEDTAVYYCAAFVRQYGFDYWGQGTQVTVSS
polyreactivity (PSR sort gate): low polyreactivity

QVQLVESGGGLVQAGGSLRLSCAASGLTFCPNAMGWYRQAPGKEREFVASISISGRTYYADSVKGRFTISRDNAKNTVYLLMNSLKPEDTAVYYCAARYVRSGLYRKYDYWGQGTQVTVSS
polyreactivity (PSR sort gate): high polyreactivity

QVQLVESGGGLVQAGGSLRLSCAASGLTFDANAMGWYIQAPGKEREFVAVISWSDGGTYYADSVKGRFTISRDNAKNTVYLQLNSLKPEDTAVYYCNADFYYVYGNTRRYRYFEMEYWGQGTQVTVSS
polyreactivity (PSR sort gate): low polyreactivity

QVQLVESGGGLVQAGGSLRLSCAASGLTFDAYAMGWYRQAPGKERELVAAISSGGNSYYADSVKGRFTISRDNAKNTVYLQMNSLKPEDTAVYYCNAVGYYKYFFLAYEYDYWGQGTQVTVSS
polyreactivity (PSR sort gate): low polyreactivity

QVQLVESGGGLVQAGGSLRLSCAASGLTFDAYAMGWYRQAPGKERELVAAISSGGNTYYADSVKGRFTISRDNAKNTVYLQMNSLKPEDTAVYYCNAVGYYKYFVLAYEYDYWGQGTQVTVSS
polyreactivity (PSR sort gate): low polyreactivity

QVQLVESGGGLVQAGGSLRLSCAASGLTFDGNTMGWYRQAPGKERELVAAISFDGGNTYADSVKGRFRISRDNAKNTVYLQMNSLKPEDTAVYYCNASYEYNAGRVETEYDYWGQGTQVTVSS
polyreactivity (PSR sort gate): low polyreactivity

QVQLVESGGGLVQAGGSLRLSCAASGLTFDRYVMGWYRQAPGKERELVAGISTGGSSTYYADSVKGRFTISRDNAKNTVYLQMNSLKPEDTAVYYCAAKLSYWSRHNYWGQGTQVTVSS
polyreactivity (PSR sort gate): high polyreactivity

QVQLVESGGGLVQAGGSLRLSCAASGLTFDSSAMGWYRQAPGTERELVAAISFSGGRTYYADSVKGRFTISRDTAKNTVYLQMNSLKPDDTAVYYCAAQLRYKYDYWGHGTQVTVSS
polyreactivity (PSR sort gate): high polyreactivity

QVQLVESGGGLVQAGGSLRLSCAASGLTFDYYAMGWYRQAPGKERELVAAIDWSGGSTYYADSVKGRFTISRDNAKNTVYLQMNSLKPEDSAVYYCATESDDSGMDYWGQGTQVTVSS
polyreactivity (PSR sort gate): low polyreactivity

QVQLVESGGGLVQAGGSLRLSCAASGLTFEDNDMGWYRQAPGKERELVAAISSAGSTSYADSVKGRFTISRDNAKNTVYLQMNSLKPEDTAVYYCAKRYYLYHYDSWGQGTQVTVSS
polyreactivity (PSR sort gate): low polyreactivity

QVQLVESGGGLVQAGGSLRLSCAASGLTFFRYARGWYRQAPGKERELVATITGRGGSTYYADSVKGRFTISRDNAKNTVYLQMNSLKPEDTAVYYCAAYYSRFRYLHRDYWGQGTQVTVSS
polyreactivity (PSR sort gate): high polyreactivity

QVQLVESGGGLVQAGGSLRLSCAASGLTFFTYVMGWYRQAPGKERELVASISERGGSTFYADSVKGRFTISRDNAKNTVYLQMNSLKPEDTAVYYCATVSQSFKYRYRWRAAASDYWGQGTQVTVSS
polyreactivity (PSR sort gate): high polyreactivity

QVQLVESGGGLVQAGGSLRLSCAASGLTFGAYAMGWYRQAPGKEREFVAAITYSGGSTNYADSVKGRFTISRDNAKNTVYLQMNSLKPEDTAVYYCNAGYYSPWAFYPYDYWGQGTQVTVSS
polyreactivity (PSR sort gate): high polyreactivity

QVQLVESGGGLVQAGGSLRLSCAASGLTFGFNAMGWYRQAPGKERELVAVIDSGGSTNYADSVKGRFTISRDNAKNTVYLQMNSLKPEDTAVYYCAADYTGFYPDGSDVDYDYWGQGTQVTVSS
polyreactivity (PSR sort gate): low polyreactivity

QVQLVESGGGLVQAGGSLRLSCAASGLTFGGYAMGWYRPAPGKERELVAAISWSGGRTYYADSVKGRFTISRDNAKNTVYLQMNSLKPEDTAVYYCAARKLVVNLREDYWGQGTQVTVSS
polyreactivity (PSR sort gate): high polyreactivity

QVQLVESGGGLVQAGGSLRLSCAASGLTFGGYAMGWYRQAPGKERELVAAISRSGGSTYYADSVKGRFTISRDNAKNTVYLQMNSLKPEDTAVYYCAAVLSVRVYGYDYWGQGTQVTVSS
polyreactivity (PSR sort gate): low polyreactivity

QVQLVESGGGLVQAGGSLRLSCAASGLTFGNYAMGWYRQAPGKERELVAAISKRGGTTYYADSVKARFTISRDNAKNTVYLQMNSLKPEDTAVYYCSARDYSHPTDDNYWGQGTQVTVSS
polyreactivity (PSR sort gate): high polyreactivity

QVQLVESGGGLVQAGGSLRLSCAASGLTFGRNAMGWYRQAPCKERDLVAAITFNGGSTYYADSVKGRFTISRDNEKNTVYIQMNSLKPEDTAVYYCAARLWRRTRFDYWGQGTQVTVSS
polyreactivity (PSR sort gate): high polyreactivity

QVQLVESGGGLVQAGGSLRLSCAASGLTFGRYAMGWYRQAPGKERELVAAITARVGRTYYADSVKGRFTISRDNAKNTVYLQMNSLKPEDTAVYYCAAGPSYYWYSHEKYDYWGQGTQVTVSS
polyreactivity (PSR sort gate): high polyreactivity

QVQLVESGGGLVQAGGSLRLSCAASGLTFGSYAMGWYRQAPGKERELVAAITWSGGSTYYADSVKGRFTISRDNAKNTVYLQMNSLKPEDTAVYYCAVYSTEYKLLWGGIAYDYWGQGTQVTVSS
polyreactivity (PSR sort gate): low polyreactivity

QVQLVESGGGLVQAGGSLRLSCAASGLTFGTNAMGWYRQAPGKERELVAAISTSSGSTYYADSVKGRFTISRDNAKNTVYLQMNSLKPEDTAGYYCAAVTVTKLSYYRYYYWGQGTQVTVSS
polyreactivity (PSR sort gate): low polyreactivity

QVQLVESGGGLVQAGGSLRLSCAASGLTFGYYAMGWYRQAPGKERELVAAISQSGGSTYYADSVKGRFTISRDNAKNTVYLQMNSLKPEDTAVYYCATRRYGYRYDQPYSNDYWGQGTQVTVSS
polyreactivity (PSR sort gate): low polyreactivity

QVQLVESGGGLVQAGGSLRLSCAASGLTFGYYAMGWYRQAPGKERELVAAISRGSSTYYADSVKGRFTISRDNAKNTVYLQMNSLKPEDTAVYYCNALFSYGYWRVRYIVTQYDYWGQGTQVTVSS
polyreactivity (PSR sort gate): high polyreactivity

QVQLVESGGGLVQAGGSLRLSCAASGLTFHPYAMGWYRQAPGKERELVAAISSRGTSTYYADSVKGRFTISRDNAKNTVYLQMNSLKPEDTAVYYCAARHGPRAESMYYWGQCTQVTVSS
polyreactivity (PSR sort gate): high polyreactivity

QVQLVESGGGLVQAGGSLRLSCAASGLTFHRYAMGWYRPAPGKERELVAAINYSGGRTYYADSVKGRFTISRDNAKYTVYLQMNSLKPEDTAVYYCAARFSRVYPRYDYWGQGTQVTVSS
polyreactivity (PSR sort gate): high polyreactivity

QVQLVESGGGLVQAGGSLRLSCAASGLTFHRYAMGWYRQAPGKERELVAAINYSGGRTYYADSVKGRFTISRDNAKNTVYLQMNSLKPEDTAVYYCNKCYVYHPGSLEYGYWGQGTQVTVSS
polyreactivity (PSR sort gate): high polyreactivity

QVQLVESGGGLVQAGGSLRLSCAASGLTFHRYAMGWYRQAPGKERELVAAISRSGVTTRYADSVKGRFTISRDNAKNTVYLQMNSLKPEDTAVYYCAAVYRVRKITYDYWGQGTQVTVSS
polyreactivity (PSR sort gate): high polyreactivity
